Data on 2 molecules can be found in US20090291081A1 (published 2009).

Usually EC50 stands for the midpoint of the concentration-response curve. Read a high EC50 as weaker potency.

One assay concerns the target T1, human IL-1α (human, UniProt P01583 113-271).
T1 chain: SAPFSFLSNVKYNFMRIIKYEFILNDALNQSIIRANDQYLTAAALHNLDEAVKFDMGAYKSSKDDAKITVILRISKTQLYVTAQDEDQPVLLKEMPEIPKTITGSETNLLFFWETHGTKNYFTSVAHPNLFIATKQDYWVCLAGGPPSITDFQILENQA
Description: yeast surface display titration (FACS); unlabelled IL-1α.

For another assay, the target named is Bio-IL-1a. Kind of assay: yeast surface display titration (FACS); biotinylated IL-1α.

B1: ABT2-108-538x/ABT1-95-15 scFv on yeast surface (scFv, V domains shown)
VH: EVQLLESGGGLVQPGGSLRLSCAASGFTFADEGMMWVRQAPGKGLEWVSRITYSGKNTYYADSVKGRFTISRDNSKNTLYLQMNSLRAEDTAVYYCAKYTGRILGHHLFDYWGQGTLVTVSS
VL: DIQMTQSPSSLSASVGDRVTITCRASQPIVRNLRWYQQKPGKAPKLLIYSSSYLEPGVPSRFSGSGSGTDFTLTISSLQPEDFATYHCQQGYRWPVTFGQGTKVEIK
Consider B1, for which it took 0.664 nM to reach a half-maximal effect with human IL-1α (EC50).

B2: ABT2-108-538x/ABT1-95-15 scFv (scFv, V domains shown)
VH: B1 VH
VL: B1 VL
In turn, B2 gave an EC50 in the assay with Bio-IL-1a of 0.664 nM.
